According to patent US20230287120A1 (ALLOGENE THERAPEUTICS, published 2023):

T1: Flag tagged recombinant DLL3 (Adipogen) (Homo sapiens (Human), UniProt Q9NYJ7 27-492)
T1 construct: Bought reagent; also called Flag-DLL3
T1 sequence: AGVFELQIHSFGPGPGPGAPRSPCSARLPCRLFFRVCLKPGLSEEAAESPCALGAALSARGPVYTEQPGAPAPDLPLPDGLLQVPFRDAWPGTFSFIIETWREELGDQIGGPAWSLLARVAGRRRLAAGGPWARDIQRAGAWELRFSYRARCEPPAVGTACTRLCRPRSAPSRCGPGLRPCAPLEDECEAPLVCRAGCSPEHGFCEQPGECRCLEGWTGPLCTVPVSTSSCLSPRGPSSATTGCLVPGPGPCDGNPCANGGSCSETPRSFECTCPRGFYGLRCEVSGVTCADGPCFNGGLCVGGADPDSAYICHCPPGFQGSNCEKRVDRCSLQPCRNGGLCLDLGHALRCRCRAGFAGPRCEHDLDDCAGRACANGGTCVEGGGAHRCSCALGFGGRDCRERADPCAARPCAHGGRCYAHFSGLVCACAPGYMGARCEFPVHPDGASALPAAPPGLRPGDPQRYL

B1: 3G6 - L2 (other)
CAR: QVPLVQSGAEVKKPGSSVKVSCKASGGTFSTYSISWVRQAPGQGLEWMGGIIPIFGTTNYAQKFQGRVTITADKSTSTAYMELSSLRSEDTAVYYCARDGEGSYYYYYGMDVWGQGTTVTVSSGGGGSGGGGSGGGGSGGGGSQSVLTQPPSASGTPGQRVTISCSGSSSNIGSNYVYWYQQLPGTAPKLLIYSNNQRPSGVPDRFSGSKSGTSASLAISGLRSEDEADYYCAAWDDSLSGWVFGGGTKLTVLTTTPAPRPPTPAPTIASQPLSLRPEACRPAAGGAVHTRGLDFACDIYIWAPLAGTCGVLLLSLVITKRGRKKLLYIFKQPFMRPVQTTQEEDGCSCRFPEEEEGGCELRVKFSRSADAPAYQQGQNQLYNELNLGRREEYDVLDKRRGRDPEMGGKPRRKNPQEGLYNELQKDKMAEAYSEIGMKGERRRGKGHDGLYQGLSTATKDTYDALHMQALPPR
notes: also called anti-DLL3 CAR with 3G6-L2 scFv, on primary T cells
B2: 3E10 (other)
CAR: QVQLQESGPGLVKPSETLSLTCNVSDGSISSYYWTWIRQPPGKGLDWIGYIFYSGTTNYNPSLKSRVTISLDTSKNQFSLKLTSMTAADTAVYYCARISEKSFYFDYWGQGTLVTVSSGGGGSGGGGSGGGGSGGGGSQSVLTQPPSASGTPGQRVTISCSGSSSNIGSNYVYWYQQLPGTAPKLLIYSNNQRPSGVPDRFSGSKSGTSASLAISGLRSEDEADYYCAPWDDSLSGRVFGGGTKLTVLTTTPAPRPPTPAPTIASQPLSLRPEACRPAAGGAVHTRGLDFACDIYIWAPLAGTCGVLLLSLVITKRGRKKLLYIFKQPFMRPVQTTQEEDGCSCRFPEEEEGGCELRVKFSRSADAPAYQQGQNQLYNELNLGRREEYDVLDKRRGRDPEMGGKPRRKNPQEGLYNELQKDKMAEAYSEIGMKGERRRGKGHDGLYQGLSTATKDTYDALHMQALPPR
notes: also called anti-DLL3 CAR with 3E10 scFv, on primary T cells
B3: 2404.8E11 (other)
CAR: QIQLQQSGPGLVKPSQTLSLTCAISGDSVSSNSAVWNWIRQSPSRGLEWLGRTYYRSKWYNDYAVSVKSRITIKPDTAKNQFSLQLNSVTPEDTAVYYFTRGGIVGAPDAFDIWGQGTMVTVSSGGGGSGGGGSGGGGSGGGGSQSVLTQPPSASGTPGQRVTISCSGSSSNIGSDPINWYQQVPGTAPKLLIYSNNQRPSGVPDRFSGSKSGTSASLAISGLQSEDEADYYCAAWDDSLNGYVFGTGTKVTVLTTTPAPRPPTPAPTIASQPLSLRPEACRPAAGGAVHTRGLDFACDIYIWAPLAGTCGVLLLSLVITKRGRKKLLYIFKQPFMRPVQTTQEEDGCSCRFPEEEEGGCELRVKFSRSADAPAYQQGQNQLYNELNLGRREEYDVLDKRRGRDPEMGGKPRRKNPQEGLYNELQKDKMAEAYSEIGMKGERRRGKGHDGLYQGLSTATKDTYDALHMQALPPR
notes: also called anti-DLL3 CAR with 2404.8E11 scFv, on primary T cells
B4: 10E12 (other)
CAR: QVQLQESGPGLVKPSETLSLTCTVSGVSISSYYWSWIRQPPGKGLEWIAYIYYSGNTNYSPSLKSRVTISVDTSKDQLSLKLSSVTAADTAVYYCTRGGSGTIDVFDIWGQGTMVAVSSGGGGSGGGGSGGGGSGGGGSQSVLTQPPSVSAAPGQKVTISCSGSSSNIGNNYVSWYQQLPGTAPKLLIYDNNKRPSGIPDRFSGSKSGTSATLGITGLQTGDEADYYCETWDSSLSAVVFGGGTKLTVLTTTPAPRPPTPAPTIASQPLSLRPEACRPAAGGAVHTRGLDFACDIYIWAPLAGTCGVLLLSLVITKRGRKKLLYIFKQPFMRPVQTTQEEDGCSCRFPEEEEGGCELRVKFSRSADAPAYQQGQNQLYNELNLGRREEYDVLDKRRGRDPEMGGKPRRKNPQEGLYNELQKDKMAEAYSEIGMKGERRRGKGHDGLYQGLSTATKDTYDALHMQALPPR
notes: also called anti-DLL3 CAR with 10E12 scFv, on primary T cells
B5: 6F8 (other)
CAR: QVQLVQSGAEVKKPGSSVKVSCKASGGTFTNYCISWVRQAPGQGLEWMGGIIPIFGTTNYAQTFQGRVTITADKSTSTAYMELSSLRSEDTAVYYCARDNGDRYYYDMDVWGQGTTVTVSSGGGGSGGGGSGGGGSGGGGSQSVLTQPPSVSAAPGQKVTISCSGSSSNIGNNYVSWYQQLPGTAPKLLIYDNNKRPSGIPDRFSGSKSGTSATLGITGLQTGDEADYYCGTWDSSLSAVVFGGGTKLTVLTTTPAPRPPTPAPTIASQPLSLRPEACRPAAGGAVHTRGLDFACDIYIWAPLAGTCGVLLLSLVITKRGRKKLLYIFKQPFMRPVQTTQEEDGCSCRFPEEEEGGCELRVKFSRSADAPAYQQGQNQLYNELNLGRREEYDVLDKRRGRDPEMGGKPRRKNPQEGLYNELQKDKMAEAYSEIGMKGERRRGKGHDGLYQGLSTATKDTYDALHMQALPPR
notes: also called anti-DLL3 CAR with 6F8 scFv, on primary T cells
B6: 3F9-L (other)
CAR: QVQLQQSGPGLVKPSQTLSLACAISGDSVSSNSAIWNWIRQSPSRGLEWLGGTYYRSMWYNDYAVSVKSRITINPDTSKNQLSLQLNSVTPEDTAVYYCSRGGIVGVPDAFDIWGQGTMVTVSSGGGGSGGGGSGGGGSGGGGSQSVLTQPPSASGTPGQRVTISCSGSSSNIGSNTANWYQQLPGTAPRLLIYRNNQRPSGVPDRFSGSKSGTSASLAISGLQSEDEADYYCAAWDDSLNGYVFGTGTKVTVLTTTPAPRPPTPAPTIASQPLSLRPEACRPAAGGAVHTRGLDFACDIYIWAPLAGTCGVLLLSLVITKRGRKKLLYIFKQPFMRPVQTTQEEDGCSCRFPEEEEGGCELRVKFSRSADAPAYQQGQNQLYNELNLGRREEYDVLDKRRGRDPEMGGKPRRKNPQEGLYNELQKDKMAEAYSEIGMKGERRRGKGHDGLYQGLSTATKDTYDALHMQALPPR
notes: also called anti-DLL3 CAR with 3F9-L scFv, on primary T cells
B7: 4E6 (other)
CAR: QVQLQESGPGLVKPSETLSLTCTVSSDSISSYYWSWIRQPPGKGLEWISYIYYSGISNYNPSLKSRVSISVDTSKNQFSLRLSSVTAADTAVYYCARISVAGFFFDNWGQGTLVTVSSGGGGSGGGGSGGGGSGGGGSEIMLTQSPDTLSLSPGERATLSCRASQSVSSSYLAWYQQKPGQAPRLLIYGASSRAAGVPDRFSGSGSGTDFTLTISRLAPEDFVVYYCQQYGISPLTFGGGTKVEIKTTTPAPRPPTPAPTIASQPLSLRPEACRPAAGGAVHTRGLDFACDIYIWAPLAGTCGVLLLSLVITKRGRKKLLYIFKQPFMRPVQTTQEEDGCSCRFPEEEEGGCELRVKFSRSADAPAYQQGQNQLYNELNLGRREEYDVLDKRRGRDPEMGGKPRRKNPQEGLYNELQKDKMAEAYSEIGMKGERRRGKGHDGLYQGLSTATKDTYDALHMQALPPR
notes: also called anti-DLL3 CAR with 4E6 scFv, on primary T cells
B8: 3G6 - L1 (other)
CAR: QVPLVQSGAEVKKPGSSVKVSCKASGGTFSTYSISWVRQAPGQGLEWMGGIIPIFGTTNYAQKFQGRVTITADKSTSTAYMELSSLRSEDTAVYYCARDGEGSYYYYYGMDVWGQGTTVTVSSGGGGSGGGGSGGGGSGGGGSQSVLTQPPSVSAAPGQKVTISCSGSSSNIGNNYVSWYQQLPGTAPKLLIYDNNKRPSGIPDRFFGSKFGTSATLGITGLQTGDEADYYCGTWDSSLSAVVFGGGTKLTVLTTTPAPRPPTPAPTIASQPLSLRPEACRPAAGGAVHTRGLDFACDIYIWAPLAGTCGVLLLSLVITKRGRKKLLYIFKQPFMRPVQTTQEEDGCSCRFPEEEEGGCELRVKFSRSADAPAYQQGQNQLYNELNLGRREEYDVLDKRRGRDPEMGGKPRRKNPQEGLYNELQKDKMAEAYSEIGMKGERRRGKGHDGLYQGLSTATKDTYDALHMQALPPR
notes: also called anti-DLL3 CAR with 3G6-L1 scFv, on primary T cells
B9: 11F4 (other)
CAR: QVHLQESGPGLVKPSETLSLTCTVSGGSISHYYWTWIRQPPGKGLEWIGYIYYSGITNFSPSLKSRVSISVDSSKNQFSLNLNSVTAADTAVYYCAGISLAGFYFDYWVQGTLVTVSSGGGGSGGGGSGGGGSGGGGSEIVLTQSPGTLSLSPGERATLSCRASQSVSRSYLAWYQQKPGQAPRLLIYGASSRATGVPDRFSGSGSGTDFTLTISRLEPEDFAVFYCQQYSISPLTFGGGTKVEIKTTTPAPRPPTPAPTIASQPLSLRPEACRPAAGGAVHTRGLDFACDIYIWAPLAGTCGVLLLSLVITKRGRKKLLYIFKQPFMRPVQTTQEEDGCSCRFPEEEEGGCELRVKFSRSADAPAYQQGQNQLYNELNLGRREEYDVLDKRRGRDPEMGGKPRRKNPQEGLYNELQKDKMAEAYSEIGMKGERRRGKGHDGLYQGLSTATKDTYDALHMQALPPR
notes: also called anti-DLL3 CAR with 11F4 scFv, on primary T cells
B10: 4C6 (other)
CAR: QVQLQESGPGLVKPSETLSLTCTVSGDSISSYYWSWIRQPPGKGLEWIGYMYYSGITNYNPSLKSRVNISLDTSKNQFSLKLGSVTAADTAVYYCARLSVAGFYFDYWGQGTLVTVSSGGGGSGGGGSGGGGSGGGGSEIVLTQSPGTLSLSPGERATLSCRASQSVTRSYLAWYQQKPGQAPRLLIYGASSRATDIPDRFSGSGSGTDFTLTINRLEPEDFAVYYCQQYGTSPLTFGGGTKVEIKTTTPAPRPPTPAPTIASQPLSLRPEACRPAAGGAVHTRGLDFACDIYIWAPLAGTCGVLLLSLVITKRGRKKLLYIFKQPFMRPVQTTQEEDGCSCRFPEEEEGGCELRVKFSRSADAPAYQQGQNQLYNELNLGRREEYDVLDKRRGRDPEMGGKPRRKNPQEGLYNELQKDKMAEAYSEIGMKGERRRGKGHDGLYQGLSTATKDTYDALHMQALPPR
notes: also called anti-DLL3 CAR with 4C6 scFv, on primary T cells
B11: 3C3 (other)
CAR: QVQLVQSGAEVKRPGASVKVSCKASGYTFTSYYIHWVRQAPGQGLEWMGVIVPSGGSISYAQKFQGRVTMTRDTSTNIVYMELSSLRSEDTAVYYCARDRYYGDYYYGLDVWGQGTTVTVSSGGGGSGGGGSGGGGSGGGGSDIQMTQSPSSLSASVGDRVTITCRASQGINNFLAWFQQKPGKAPKSLIYAASSLQSGVPSKFSGSGSGTDFTLTIRSLQPEDFATYYCQHYNSYPITFGQGTRLEIKTTTPAPRPPTPAPTIASQPLSLRPEACRPAAGGAVHTRGLDFACDIYIWAPLAGTCGVLLLSLVITKRGRKKLLYIFKQPFMRPVQTTQEEDGCSCRFPEEEEGGCELRVKFSRSADAPAYQQGQNQLYNELNLGRREEYDVLDKRRGRDPEMGGKPRRKNPQEGLYNELQKDKMAEAYSEIGMKGERRRGKGHDGLYQGLSTATKDTYDALHMQALPPR
notes: also called anti-DLL3 CAR with 3C3 scFv, on primary T cells

Tests used:
[1] = target: T1, Flag tagged recombinant DLL3 (Adipogen); test: flow cytometry, percent of T cells that recognise recombinant DLL3, Donor 772
Experimental: (§1) To determine the percentage of T cells that were successfully transduced with DLL3 CAR, T cells were first incubated with 1 ug/ml Flag tagged recombinant DLL3 (Adipogen) in PBS+1% BSA for 20 minutes at 4 C.

[2] = target: T1, Flag tagged recombinant DLL3 (Adipogen); test: flow cytometry, percent of T cells that recognise recombinant DLL3, Donor 503
Experimental: as §1

Row | Binder | Transduction efficiency [1] | Transduction efficiency [2]
1 | B1 | 16.9% | 33.5%
2 | B2 | 0.43% | 
3 | B3 |  | 58.9%
4 | B4 | 0.98% | 
5 | B5 | 26.7% | 59.4%
6 | B6 | 13.8% | 19.5%
7 | B7 | 24.8% | 37.8%
8 | B8 | 14.2% | 35%
9 | B9 | 0.43% | 
10 | B10 | 25.2% | 56.9%
11 | B11 | 0.14% | 
